Assays:
[1] = biological target: T1, TFAM (WT) (human) (UniProt Q00059); experiment: DNase I footprinting; settings: Footprinting: 10 mM HEPES pH 7.5, 10 mM MgCl2, 10 mM CaCl2 (so in the source), 100 mM NaCl, 1 mM TCEP, 0.1 mg/mL BSA, 32°C; AFM buffer not in material
T1 sequence: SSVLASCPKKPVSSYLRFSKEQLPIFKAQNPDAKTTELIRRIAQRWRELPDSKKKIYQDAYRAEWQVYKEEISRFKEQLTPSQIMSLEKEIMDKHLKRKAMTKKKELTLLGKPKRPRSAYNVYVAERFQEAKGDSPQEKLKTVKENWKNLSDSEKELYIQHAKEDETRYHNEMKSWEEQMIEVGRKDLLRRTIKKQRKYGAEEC

[2] = biological target: TFAM-CTΔ26;POLRMT;TFB2M del221-246 (human;human?;human?) (UniProt Q00059+O00411+Q9H5Q4); experiment: DNase I footprinting; settings: Footprinting: 10 mM HEPES pH 7.5, 10 mM MgCl2, 10 mM CaCl2 (so in the source), 100 mM NaCl, 1 mM TCEP, 0.1 mg/mL BSA, 32°C; AFM buffer not in material
[3] = tested on: TFAM (WT) (human); experiment: AFM in liquid, fractional DNA contour coverage; settings: effective free TFAM concentration; Footprinting: 10 mM HEPES pH 7.5, 10 mM MgCl2, 10 mM CaCl2 (so in the source), 100 mM NaCl, 1 mM TCEP, 0.1 mg/mL BSA, 32°C; AFM buffer not in material
[4] = tested on: TFAM-CTΔ26 (human); experiment: AFM in liquid, persistence length; settings: 100 nM CTΔ26 (33 nm) similar to 10 nM TFAM (30 nm); no looping enhancement; Footprinting: 10 mM HEPES pH 7.5, 10 mM MgCl2, 10 mM CaCl2 (so in the source), 100 mM NaCl, 1 mM TCEP, 0.1 mg/mL BSA, 32°C; AFM buffer not in material

TFAM-CTΔ26;POLRMT;TFB2M del221-246 (human;human?;human?), sequence (O00411 42-1230, stated change not applied, chain 2 of 2): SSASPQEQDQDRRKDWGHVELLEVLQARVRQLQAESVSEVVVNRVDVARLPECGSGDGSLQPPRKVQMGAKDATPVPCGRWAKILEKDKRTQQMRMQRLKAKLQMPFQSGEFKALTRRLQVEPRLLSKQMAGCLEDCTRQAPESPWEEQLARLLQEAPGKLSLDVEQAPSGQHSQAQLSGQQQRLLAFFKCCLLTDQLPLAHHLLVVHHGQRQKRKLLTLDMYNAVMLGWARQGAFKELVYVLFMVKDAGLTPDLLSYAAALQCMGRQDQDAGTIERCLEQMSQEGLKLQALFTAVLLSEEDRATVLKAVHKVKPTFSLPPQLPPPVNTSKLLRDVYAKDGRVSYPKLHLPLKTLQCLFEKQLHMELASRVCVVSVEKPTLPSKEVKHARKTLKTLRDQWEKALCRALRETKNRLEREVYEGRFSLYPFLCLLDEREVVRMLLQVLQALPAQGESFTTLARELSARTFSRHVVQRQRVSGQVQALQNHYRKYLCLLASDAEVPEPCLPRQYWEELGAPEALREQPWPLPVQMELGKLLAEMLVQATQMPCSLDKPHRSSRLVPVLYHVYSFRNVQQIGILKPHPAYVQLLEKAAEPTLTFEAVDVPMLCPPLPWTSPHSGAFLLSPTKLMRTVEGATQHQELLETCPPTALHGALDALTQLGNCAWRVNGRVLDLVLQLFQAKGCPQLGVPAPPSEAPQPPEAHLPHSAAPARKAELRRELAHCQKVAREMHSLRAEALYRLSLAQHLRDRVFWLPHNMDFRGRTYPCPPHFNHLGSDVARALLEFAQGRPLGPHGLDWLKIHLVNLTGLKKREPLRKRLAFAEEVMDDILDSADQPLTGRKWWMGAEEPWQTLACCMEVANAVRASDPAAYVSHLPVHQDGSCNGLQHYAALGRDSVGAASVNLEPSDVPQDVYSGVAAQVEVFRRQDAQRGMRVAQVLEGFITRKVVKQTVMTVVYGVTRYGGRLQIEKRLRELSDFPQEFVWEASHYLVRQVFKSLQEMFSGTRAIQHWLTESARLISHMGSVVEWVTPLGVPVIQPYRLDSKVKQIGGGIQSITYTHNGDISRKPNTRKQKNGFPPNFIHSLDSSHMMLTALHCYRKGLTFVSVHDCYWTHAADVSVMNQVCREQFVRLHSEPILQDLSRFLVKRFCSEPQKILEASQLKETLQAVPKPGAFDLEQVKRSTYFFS
TFAM-CTΔ26;POLRMT;TFB2M del221-246 (human;human?;human?), sequence (Q9H5Q4 20-396, stated change not applied, chain 3 of 2): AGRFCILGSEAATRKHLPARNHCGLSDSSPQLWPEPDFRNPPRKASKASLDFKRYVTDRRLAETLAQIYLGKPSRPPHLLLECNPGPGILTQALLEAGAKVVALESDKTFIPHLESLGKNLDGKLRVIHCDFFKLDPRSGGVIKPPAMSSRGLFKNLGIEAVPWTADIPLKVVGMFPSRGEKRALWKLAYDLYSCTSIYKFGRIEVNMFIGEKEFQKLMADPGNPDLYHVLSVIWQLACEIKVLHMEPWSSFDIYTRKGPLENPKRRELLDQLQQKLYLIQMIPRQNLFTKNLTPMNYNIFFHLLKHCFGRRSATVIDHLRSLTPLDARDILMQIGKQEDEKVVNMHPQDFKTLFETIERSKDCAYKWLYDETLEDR

Which binding [1] does the source give for “ATTGCTTTGAGGAGGTAAGCTACATAAACTGTGGGGGGTGTCTTTGGGGTTTGGTTGGTTCGGGGTATGGGGTTAGCAGCGGTGTGTGTGTGCTGGGTAGGATGGGCGGGGGTTGTATTGATGAGATTAGTAGTATGGGAGTGGGAGGGGAAAATAATGTGTTAGTTGGGGGGTGACTGTTAAAAGTGCATACCGCCAAAAGATAAAATTTGAAATCTGGTTAGGCTGGTGTT (double strand) [dual promoter template (DPT-WT)]” here?
Its binding is “binds”.

And the binding [2]?
Its binding is “binds more weakly”.

For mtDNA construct (AFM), which Kd [3] is on record?
Its Kd is 59 nM.

And the binding signal (fold weaker than WT TFAM) [4]?
The binding signal (fold weaker than WT TFAM) was 10.

With puc18 control construct (AFM) as the substance, how does the Kd [3] read?
Its Kd is 200 nM.
